{"source": "patent US8227408B2", "about": "“Leptin as an anti-amyloidogenic biologic and methods for delaying the onset and reducing Alzheimer's disease-like pathology” (Neurotez, Inc., priority 2005, dated 2012)", "key": {"primary neurons": {"system": "primary neurons", "assay": "Filipin staining of primary neurons", "type": "cell-based, rat", "conditions": "about 5 h", "experimental": "(§1) Leptin was detected using a rabbit polyclonal antibody raised against mouse leptin, corss-reacting with human leptin (obtained from Dr. A. F. Parlow, Harbor-UCLA, CA). Immunofluorescent confocal microscopy was performed on 2% paraformaldehyde-fixed primary neural cells. Filipin staining was performed as described (Feng et al., Nat Cell Biol. 5:781-92 (2003)).\n(§2) Neural cultures from ε15 rat cerebral cortex were processed for enrichment of neurons (a-d) or astrocytes (e-h) as described (Takeshima et al., J. Neurosci. Methods 67: 27-41 (1996)). After about 7 days to about 10 days in culture, cultures were treated for about 5 h with about 10 μg/ml cholesterol (b, f) or about 400 ng/ml leptin plus cholesterol (c, g) or leptin alone (d, h). Controls (a, e) were treated with culture media alone. Filipin staining was performed as described (Feng et al., Nat. Cell Biol. 5: 781-92 (2003)). Neurons (i-k) and astrocytes (l-n) prepared as above were treated with 0 μM (i, l), 5 μM (j, m) or 10 μM cholesterol (k, n) for 5 h. Immunostaining was performed for leptin (A.F.Parlow, Harbor-UCLA, CA)."}, "Tg2576 mice": {"system": "Tg2576 mice", "assay": "Chronic s.c. leptin infusion in Tg2576 mice under high or low fat diet", "type": "in vivo, mouse", "experimental": "Blood was withdrawn (approximately 1 ml) from deeply anaesthetized animals by cardiocentesis and mixed with 25 μl of 164 μM EDTA anticoagulant. Plasma was prepared immediately and frozen at −70° C. Plasma leptin concentrations were determined by a radioimmunoassay (RIA) (Chung et al., Am. J Physiol. 274:R985-R990 (1998)), using a kit from LINCO Research, Inc. (Missouri).\nAPPswe (SEQ ID NO: 13) expressing mice (Tg2576) or wild-type littermates were maintained in pathogen-free environment at 25° C. on a 12-12 h light-dark cycle. Mice were euthanized between the ages of 31 and 40 weeks. They were provided ad libidum access for up to 9 weeks (i.e., 1 week prior to leptin treatments and 8 weeks during such treatments) to a high fat diet (D12451) containing about 45% of the total calories from fat (Research Diets, NJ) or to a low fat diet (D12450B) containing about 10% of the total calories from fat. Equal number of male and female Tg2576 mice under each diet were administered leptin or a placebo (PBS) from the age of 32 wks to up to 40 wks of age. For this, mice were anaesthetized with intraperitoneal injection of ketamine (55 mg/ml) and xylazine (7-10 mg/ml) and surgically fitted with an Alzet miniosmotic pump (model 2004, Durect Co, CA) placed subcutaneously. Local subcutaneous injection of 0.5 ml of 0.5% lidocaine insured postoperative relief. Half of the mice received daily about 20 μg leptin in PBS (0.25 μl/h of 3.33 mg/ml recombinant murine leptin) and the other half were infused with PBS. Four from each group (two males and two females) were euthanized after 4 weeks treatment. Osmotic pumps were replaced in the rest and the mice then treated for a total period of 8 weeks. Wild-type littermates were also treated with leptin under high or low diet regimens. […]\nIn panel (a), plasma leptin was quantified in one year old mice with the following genotypes: i) double mutant APPSwe/PS1M146V ii) single mutant PS1M146V and iii) wild-type (a cross between C57BL/6Ntac and B6SJLF2). […] Plasma Aβ was also measured in these mice prior to treatment. […] In panel (c), plasma leptin was determined by radioimmunoassay (“RIA”) (LINCO Research, Inc.) in 8 month old Tg2576 and WT littermate mice and then again following treatments as described in FIG. 4b. Leptin also was measured in WT but not Tg2576 mice prior to treatment. In panel (d), plasma insulin was determined by RIA (LINCO Research, Inc.) in 8 month old WT and Tg2576 mice and then again following a 2 month LFD or HFD with (+) or without (−) leptin infusion. In panel (e), plasma total Aβ (Aβ40 (SEQ ID NO: 4) plus Aβ42/43 (SEQ ID NO: 5/SEQ ID NO: 6) was measured in 8 month Tg2576 mice and then again following a 2 month LFD or HFD with (+) or without (−) leptin infusion. […]"}, "astrocytes": {"system": "astrocytes", "assay": "Filipin staining of astrocytes", "type": "cell-based, rat", "conditions": "about 5 h", "experimental": "as §1, §2"}, "[1]": {"system": "Neuro2a cells stably transfected with hyg-sa134 (SEAP-APP)", "assay": "Aβ production by Neuro2a cells stably transfected with hyg-sa134 (total Aβ in media, sandwich ELISA)", "type": "cell-based, mouse", "conditions": "5 h; about 400 ng/ml leptin alone or 10 μM water-soluble cholesterol alone; FIG. 4b"}}}
{"molecule": "Leptin: peptide hormone controlling adaptive metabolic mechanisms to energy availability; leptin (Harbor-UCLA) in vitro, recombinant murine leptin in mice (protein, UniProt P41160 22-167, looked up) Leptin: VPIQKVQDDTKTLIKTIVTRINDISHTQSVSAKQRVTGLDFIPGLHPILSLSKMDQTLAVYQQVLTSLPSQNVLQIANDLENLRDLLHLLAFSKSCSLPQTSGLQKPESLDGVLEASLYSTEVVALSRLQGSLQDILQQLDVSPEC", "values": [{"measurement": "increase in filipin labelling by cholesterol", "setting": "primary neurons; neurons, leptin about 400 ng/ml plus cholesterol about 10 μg/ml", "value": "prohibited an increase"}, {"measurement": "filipin labelling", "setting": "primary neurons; primary neurons, about 400 ng/ml leptin", "value": "diminished filipin labelling"}, {"measurement": "levels of circulating Aβ (total Aβ in the plasma)", "setting": "Tg2576 mice; Tg2576, both diets, 2 month leptin infusion", "value": "lower the levels of circulating Aβ under both diets"}, {"measurement": "APP expression in adipocytes", "setting": "Tg2576 mice; adipose tissue of mice under high or low fat diets, data not shown", "value": "no apparent influence"}, {"measurement": "fasting insulin levels (plasma, RIA)", "setting": "Tg2576 mice; all groups (WT and Tg2576, LFD and HFD), 2 month leptin infusion", "value": "decreased fasting insulin levels in all groups"}, {"measurement": "brain Aβ load", "setting": "Tg2576 mice; chronic administration, s.c. Alzet pump about 20 μg leptin daily, up to 8 weeks", "value": "reduced the brain Aβ load"}, {"measurement": "filipin labelling", "setting": "astrocytes; about 400 ng/ml leptin", "value": "diminished filipin labelling"}, {"measurement": "increase in filipin labelling by cholesterol", "setting": "astrocytes; leptin about 400 ng/ml plus cholesterol about 10 μg/ml", "value": "prohibited an increase"}, {"measurement": "levels of Aβ detected in the media (percentage of corresponding controls)", "setting": "[1]", "value": "56±5", "unit": "%"}]}
